B1: human anti-FHbp Fab 6B (Fab, V domains shown)
VH: EVQLVESGGGLVQPGGSLRLSCAASGFTFSSYAMSWVRQAPGKGLEWVSAISGSGGSSHYTDSVKGRFTISRDNSKNTLWLQMNSLRAEDTAIYYCAKTSGSYYYHYEIDVWGQGTTVTVSS
VL: EIVLTQSPGTLSLSPGERATLSCRASQSVSSSYLAWYQQKPGQAPRLLIYGTSNRATGIPDRFSGSGSGTDFTLTVSRLEPEDFAVYYCQQYGSSPCSFGQGTKLELK
B2: control chimeric human-mouse anti-FHbp Fab 502 (Fab, V domains shown)
VH: EVQLQESGPGLAKPSQTLSLTCSVTGYSITSDFWNWIRKFPGNKLEYMGYISYSGSTDYNPSLKSRISITRDTSKNQYYLQLNSVTAEDTATYYCARYFGSSYAMDHWGQGTSVTVSS
VL: DIQMTQSPASLSASVGETVTITCRASGNIHNYLAWYQQKQGKSPQLLVYTAKTLAEGVPSRFSGSGSGTQFSLKINSLQPEDFGSYYCQHFWSTPWTFGGGTKLEIK
B3: human anti-FHbp Fab 2A (Fab, V domains shown)
VH: QVQLQQSGSGLVKPSQTLSLTCTVSGGSINIGDRYWSWLRQSPGKGLEWIGYIDYSGDTYYNSSLKSRAAISIDTSNKQFSLKLSSVTAADTAVYYCARGSSDFSSGYFFDYWGQGTLVTVSS
VL: ETTLTQSPATLSVSPGERAILSCRDSQSVSSNLAWYQQKPGQAPRLLIFGASTRATGIPARFSGSGSGTEFTLTISSLQSEDFAVYYCQQYNNWLSFGQGTKLEIK
B4: human anti-FHbp Fab 4B (Fab, V domains shown)
VH: EVQLVESGGGLAQPGGSLRLSCVASGSTFGSYAIYWVRQAPGKGLEWVSGISGSGTKIDYADSVKGRFTISRDISKNTLYLQMNSLRAEDTAVYYCAKLGFFDYWGQGTQVTVSS
VL: EIVLTQSPDTLSLSPGERATLSCRASQSVSTYLFWYQKKPGQAPRLLIFDASNRATGIPVRFSGSGSGTDFTLTISSLEPEDFAVYYCQQRSNWPQTFGGGTKVEIK
B5: human anti-FHbp Fab 3C (Fab, V domains shown)
VH: QVQLQESGPGLVKPSETLSLTCTVSGYSITRGYYWGWIRQPPGKGLEWIGGIYHSGTTYQNPSLRSRVTFSVDTSKNQFSLKLRSVTAADTAVYYCARDNYSSNLDYWGQGTMVTVSS
VL: EIVLTQSPGTLSLSPGERATLSCRASQSVSSSYLAWYQQKAGQAPRLLIYGASSRATGIPERFSGSGSGTDFTLTISRLEPEDFAIYYCQQYGSSRFIFGPGTKVDIK
B6: human anti-FHbp Fab 9B (Fab, V domains shown)
VH: EVQLVQSGAELKKPGESLKISCKASGYTFTNYWVVWVRQMPGEGLEWMGSIHPRDSDARYSLSFEGRVTFSVDKSTTTAYLQWSSLKVSDSAIYYCARLSQVSGWSPWVGPWGQGTLVTVSS
VL: DIVMTQSPSSLSASVGDRVTITCRASQSISVSLNWYQQKPGKAPKVLIYAASRLQSGIPSRFSGSGSGSHFTLTISSLQPEDFATYYCQETYSDLMYTFGQGTKVEIK
B7: human anti-FHbp Fab 8A (Fab, V domains shown)
VH: QVQLVESGGGLVQPGGSLRLSCVTSGFTFRSYAMTWVRQAPGKGLEWVSSISHSGGSTKYADSVKGRLTISRDDSMDTLYLQMNSLRAEDTAIYYCAKDQISYPAASPLDYWGRGTLVTVSS
VL: EIVLTQSPGTLSLSPGERATLSCRASQSFSSFSLAWYQQKPGQAPRLLIYAPSNRATGIADRFSGSGSGTDFTLTISRLEPEDFAVYYCQQYGSSPITFGQGTRLEIK
B8: human anti-FHbp Fab 10C (Fab, V domains shown)
VH: QVQLVESGGGVVQPGRSLRLSCPASGFTFSRYALHWVRQAPGKGLEWVAVISFDGSFKYYADSVKGRFSISRDNFKNTLYLQMNSLRAEDTAVYYCAKDDTLHASGWGGFDYWGQGALVTVSS
VL: EIVLTQSPATLSLSPGERATLSCRASQSVTSYLTWYQHKPGQAPRLLIYHTSYRATGIPARFSGSGSGTDFTLSITSLEPEDFAVYYCQQRSNWPFTFGPGTKVDIK
B9: human anti-FHbp Fab 5B (Fab, V domains shown)
VH: EVQLLESGGGLVQPGGSLRLSCAASGYTFGSYAMTWVRQGPGKGLEWVSTILGSGADTYYADSVKGRFTISRDNSRNTLFMQLSSLRAEDTAVYYCAKLGYYDTWGQGTLVTVSS
VL: EIVLTQSPATLSLSPGERATLSCRASQSIASYLYWYQQKPGQAPRLLIFDASNRATGTPARFSGSGSGTDFTLTISSLEPEDFAVYYCQQRNNWPRALTFGGGTKVEIK
B10: human anti-FHbp Fab 7B (Fab, V domains shown)
VH: QVQLVQSGPEVKKPGASVKISCKTSGYTFTTNALYWVRQAPGQRPEWVGWLNTGNGNSKTSQNFQGRVTITRDTSASSTYMELSSLTFEDTAVYFCARRPSGDYNTYYFDFWGQGTLVTVSS
VL: EIVMTQSPGTLSLSPGGRGTLSCRASESVSSSYISWYQHKSGQAPRLLIYGASSRATGIPDRFSGSGSGTDFTLTISRLEPEDFAVYYRQYFSGSKGLTFGPGTKVDIK

Biological target: recombinant factor H binding protein (FHbp) ID 1 (Neisseria meningitidis serogroup B …, UniProt Q9JXV4)
Experiment: SPR

Sequence of recombinant factor H binding protein (FHbp) ID 1 (Q9JXV4 20-274): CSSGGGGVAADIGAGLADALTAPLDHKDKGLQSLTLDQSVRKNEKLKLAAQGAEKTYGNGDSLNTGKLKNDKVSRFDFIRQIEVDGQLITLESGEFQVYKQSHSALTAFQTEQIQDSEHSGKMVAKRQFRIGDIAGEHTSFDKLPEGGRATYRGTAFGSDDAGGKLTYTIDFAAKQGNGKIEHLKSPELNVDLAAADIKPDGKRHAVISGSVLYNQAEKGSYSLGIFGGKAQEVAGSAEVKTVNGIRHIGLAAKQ

Row | Binder | Kd [nM] | koff [s⁻¹] | kon [M⁻¹ s⁻¹]
1 | B1 | 0.82 | 0.0004 | 500000
2 | B2 | 4.8 | 0.0053 | 1.09e+06
3 | B3 | 115 | 0.061 | 530000
4 | B4 | 0.86 | 0.0006 | 720000
5 | B5 | 130 | 0.0032 | 30000
6 | B6 | 0.019 | 4e-05 | 1.85e+06
7 | B7 | 1.04 | 0.002 | 2.3e+06
8 | B8 | 0.68 | 0.0005 | 930000
9 | B9 | 10.6 | 0.0041 | 390000

Biological target: recombinant factor H binding protein (FHbp) ID 1 (Neisseria meningitidis) (UniProt Q9JXV4)
Experiment: SPR

Sequence of recombinant factor H binding protein (FHbp) ID 1 (Neisseria meningitidis) (Q9JXV4 20-274): as above

Row | Binder | Kd [nM]
10 | B10 | 22.9
